The values below come from paper PMC10920689.

The target in experiment [1] is truncated soluble human FcRn of the FcRn binding ELISAs (hFcRn-GST or biotinylated human FcRn; the form is not told for the panel) (UniProt P55899).
The target is the same in experiment [2]. This is another data set of the same source.
For experiment [3], the target named is human FcRn coupled to the FcRn retention column (UniProt P55899). Description: analytical FcRn affinity chromatography; 100 μg NIP IgG1 variant injected over a human FcRn retention column at pH 6.0, eluted by a pH gradient 6.0 to 8.8 over 110 min (20 mM MES, 140 mM NaCl pH 6.0; 20 mM Tris/HCl, 140 NaCl pH 8.8).
Experiment [4] deals with anti-NIP human IgG1 Q311R/M428E/N434W (REW) (human). Description: SPR; Biacore 3000; NIP IgG1 variants amine-coupled (300 RU) to CM5 chips; serial dilutions of monomeric hFcRn-His injected at pH 6.0 (phosphate), 50 μl/min, 25 °C; Langmuir 1:1 model.
The target in experiment [5] is anti-NIP IgG1 DHS (human). Description: SPR; IgG variants amine-coupled to CM5 chips (300 RU), serial dilutions of monomeric hFcRn-His injected; phosphate buffer pH 6.0, 25 °C, 50 µl/min; 1:1 Langmuir model. For orientation: Surface plasmon resonance follows binding to a sensor surface in real time, without labels.
The target of another experiment is anti-NIP IgG2 WT (human). The experiment is described as above.
The target in experiment [6] is anti-NIP IgG3 R435H/REW (human). Described as above.
Another experiment concerns the target anti-NIP IgG1 WT (human). The experiment is described as above.
The target in experiment [7] is anti-NIP IgG4 REW (human). The description is as above.
In experiment [8] the target is anti-NIP IgG1 YTE/KF (human). Described as above.
Experiment [9] addresses anti-NIP IgG1 YTE (human). The description is as above.
The target of experiment [10] is anti-NIP IgG2 REW (human). The experiment is described as above.
The target in experiment [11] is recombinant etanercept WT. The experiment is described as above.
In the next experiment the target is anti-NIP IgG1 LS (human). The experiment is described as above.
In experiment [12] the target is anti-NIP IgG1 Q311R/M428E/N434W (REW) (human). Described as above.
Another experiment addresses anti-NIP IgG1 KF (human). Described as above.
The target in a further experiment is anti-NIP IgG4 WT (human). The experiment is described as above.
The next experiment concerns the target anti-NIP IgG3 WT (human). The experiment is described as above.
Experiment [13] concerns the target truncated soluble biotinylated mouse FcRn lacking the transmembrane domain (mouse | not stated) (UniProt Q61559).
Sequence of UniProt Q61559 (Q61559 22-297, chain 1 of 2): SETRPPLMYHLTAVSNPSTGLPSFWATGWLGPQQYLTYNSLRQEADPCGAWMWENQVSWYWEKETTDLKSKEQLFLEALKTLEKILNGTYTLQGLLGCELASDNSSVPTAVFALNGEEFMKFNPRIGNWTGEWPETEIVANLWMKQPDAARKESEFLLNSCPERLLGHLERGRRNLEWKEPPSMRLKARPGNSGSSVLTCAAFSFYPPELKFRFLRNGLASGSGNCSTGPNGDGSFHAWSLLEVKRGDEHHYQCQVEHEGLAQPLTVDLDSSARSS
Sequence of UniProt Q61559 (P01887 21-119, chain 2 of 2, further chain): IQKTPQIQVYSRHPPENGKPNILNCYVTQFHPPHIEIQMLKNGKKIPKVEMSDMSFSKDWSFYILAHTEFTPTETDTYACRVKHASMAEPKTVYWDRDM

Substance “anti-NIP human IgG2 wild type (antibody)” displayed a plasma half-life in Tg32 mice preloaded with IVIg in [1] of 202 h.

In the case of “anti-NIP human IgG1 wild type (antibody)”, the plasma half-life after i.v. injection (5 mg/kg) in human FcRn transgenic mice (Tg32) preloaded with IVIg in experiment [2] came to 187 h. The pH of elution from the FcRn column in [3] came out at 6.95 pH.

On to “truncated soluble His6x tagged human FcRn lacking the transmembrane domain (hFcRn-His), monomeric fraction (from UniProt P55899 24-297; P61769 21-119) (receptor)”, for which the fold lower KD than WT in [4] is 20 fold.

For the substance “anti-NIP human IgG2 Q311R/M428E/N434W (REW) (antibody)”, the plasma half-life in Tg32 mice preloaded with IVIg in [1] turned out to be 276 h.

As to “truncated soluble His6x tagged human FcRn lacking the transmembrane domain (hFcRn-His) (from UniProt P55899 24-297; P61769 21-119) (receptor)”, the Kd in experiment [5] was found to be 0.0403 µM; with anti-NIP IgG2 WT (human) it was 0.388 µM; in experiment [6], 0.0103 µM; in the experiment with anti-NIP IgG1 WT (human), 0.171 µM; in experiment [7] it was 0.0131 µM; in [8], 0.00344 µM. For the same substance, the Kd in experiment [9] stood at 0.0282 µM; in [10] it was 0.0133 µM; in [11], 0.346 µM; with anti-NIP IgG1 LS (human), 0.0137 µM; in experiment [12], 0.00839 µM; in the experiment with anti-NIP IgG1 KF (human), 0.0159 µM. Moreover, the Kd with anti-NIP IgG4 WT (human) amounted to 1.28 µM; with anti-NIP IgG3 WT (human), 0.525 µM. Moreover, the koff in experiment [5] was found to be 0.0304 s⁻¹; with anti-NIP IgG2 WT (human), 0.0536 s⁻¹; in [6], 0.007 s⁻¹; with anti-NIP IgG1 WT (human), 0.0825 s⁻¹; in [7], 0.008 s⁻¹; in [8], 0.003 s⁻¹. Also, the dissociation rate constant (koff) amounted to 0.0168 s⁻¹ in experiment [9]; 0.0075 s⁻¹ in experiment [10]; 0.12 s⁻¹ in [11]; 0.0058 s⁻¹ in the experiment with anti-NIP IgG1 LS (human); 0.0055 s⁻¹ in [12]; 0.0122 s⁻¹ with anti-NIP IgG1 KF (human). For the same substance, the results for the koff with anti-NIP IgG4 WT (human) and with anti-NIP IgG3 WT (human) were 0.123 s⁻¹ and 0.177 s⁻¹, respectively. The kon was determined as 756000 M⁻¹ s⁻¹ in [5]; 138000 M⁻¹ s⁻¹ in the experiment with anti-NIP IgG2 WT (human); 674000 M⁻¹ s⁻¹ in experiment [6]; 483000 M⁻¹ s⁻¹ with anti-NIP IgG1 WT (human); 606000 M⁻¹ s⁻¹ in experiment [7]; 871000 M⁻¹ s⁻¹ in experiment [8]. Besides, the association rate constant (kon) stood at 594000 M⁻¹ s⁻¹ in experiment [9]; 570000 M⁻¹ s⁻¹ in [10]; 348000 M⁻¹ s⁻¹ in experiment [11]; 422000 M⁻¹ s⁻¹ in the experiment with anti-NIP IgG1 LS (human); 653000 M⁻¹ s⁻¹ in experiment [12]; 770000 M⁻¹ s⁻¹ with anti-NIP IgG1 KF (human). The kon with anti-NIP IgG4 WT (human) stood at 95800 M⁻¹ s⁻¹; in the experiment with anti-NIP IgG3 WT (human), 337000 M⁻¹ s⁻¹.

In [2], “anti-NIP human IgG1 Q311R/M428E/N434W (REW) (antibody)” showed a plasma half-life after i.v. injection (5 mg/kg) in human FcRn transgenic mice (Tg32) preloaded with IVIg of 341 h. Besides, the pH of elution from the FcRn column in experiment [3] is 7.58 pH. For the same substance, in [13], the plasma half-life in conventional mice, against WT amounted to 2 fold.

Broadly, the Kd is the equilibrium constant for the complex coming apart. A word on the koff: it is the rate constant with which the complex falls apart. By kon is commonly meant the rate constant with which the complex forms.
